The values that follow are results of earlier work, collected in paper PMC5964610.

pKd: −log10 of the molar value.

The data set addresses FER (Arabidopsis thaliana) (UniProt Q9SCZ4).
Sequence of UniProt Q9SCZ4 (Q9SCZ4 28-447): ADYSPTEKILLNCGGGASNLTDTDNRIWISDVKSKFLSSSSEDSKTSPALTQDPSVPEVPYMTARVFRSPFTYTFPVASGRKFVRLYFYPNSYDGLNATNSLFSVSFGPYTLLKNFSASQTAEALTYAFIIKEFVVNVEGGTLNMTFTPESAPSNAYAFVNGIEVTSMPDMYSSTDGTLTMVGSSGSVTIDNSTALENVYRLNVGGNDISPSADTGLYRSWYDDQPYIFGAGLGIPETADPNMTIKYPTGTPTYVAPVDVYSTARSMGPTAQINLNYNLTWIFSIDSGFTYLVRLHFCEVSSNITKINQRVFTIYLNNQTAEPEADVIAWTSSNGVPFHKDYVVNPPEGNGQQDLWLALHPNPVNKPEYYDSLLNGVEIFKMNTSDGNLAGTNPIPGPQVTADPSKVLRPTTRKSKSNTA

Take RALF23 (from UniProt Q9LUS7): the pKd was 6.51.
